Test results: the supplement of paper PMC9732359
± gives the uncertainty stated by the source.

Test: protein stability index of a GFP-peptide fusion (yeast GPS) (PSI 1-4); higher = more stable; sorted into four equal gates, so the index is relative within each strain
Summary of the method: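 The protein stability index of a peptide was calculated by multiplying its read frequency in each gate by that gate's number and adding the products. The peptides were tiled 17-residue stretches of yeast proteins, fused downstream of GFP on a Cherry-expressing plasmid and carried in yeast as a pooled library. Mid-log cultures in leucine-free medium were sorted into four equal gates by GFP/Cherry ratio, and each gate's plasmids were PCR-amplified and Illumina-sequenced.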

| Sequence | protein stability index (doa10∆) | protein stability index (pdr5∆) | protein stability index (san1∆) | protein stability index (ubr1∆) |
| --- | --- | --- | --- | --- |
| ISQKLTNVNVKIKDVQQ [SMC3] | 1.97 ± 0.12 | 2.34 ± 0.064 | 2.27 ± 0.14 | 2.32 ± 0.19 |
| EAFNDGNENFEDFDVEH [RPO26] | 2.97 ± 0.079 | 3.15 ± 0.086 | 2.92 ± 0.085 | 3.21 ± 0.079 |
| LSLMLESPNYCNALIHI [SRB4] | 1.52 ± 0.044 | 1.78 ± 0.035 | 1.72 ± 0.075 | 1.75 ± 0.035 |
| EFIAAVNNPQEETSHLL [RPN10] | 2.33 ± 0.12 | 3 ± 0.091 | 3 ± 0.14 | 2.82 ± 0.068 |
| TREKVLEDKLRAVLTPL [RRP46] | 2.89 ± 0.17 | 3.05 ± 0.11 | 2.91 ± 0.19 | 2.82 ± 0.11 |
| FEFNIRHSGKVYPITLS [UBP6] | 1.74 ± 0.11 | 2.51 ± 0.12 | 2.89 ± 0.089 | 1.22 ± 0.056 |
| RFISDLLWLVLIHPENF [SWI1] | 1.82 ± 0.081 | 1.28 ± 0.092 | 1.86 ± 0.2 | 2.59 ± 0.18 |
| KLELINRYAYVLSSLMF [LRP1] | 2.21 ± 0.05 | 2.31 ± 0.049 | 1.94 ± 0.064 | 2.65 ± 0.046 |
| IKEENDMENMADEQKRS [ARP7] | 3.54 ± 0.17 | 3.48 ± 0.15 | 3.24 ± 0.095 | 3.19 ± 0.24 |
| VEDVSQNAADLQQICRV [RPL9A] | 2.96 ± 0.096 | 3.42 ± 0.047 | 2.76 ± 0.093 | 3.03 ± 0.051 |
| HEVQYQESSSTLSTHST [SIN4] | 2.68 ± 0.037 | 2.78 ± 0.036 | 2.87 ± 0.041 | 2.83 ± 0.032 |
| IIDEIITQMRVNDEEEH [RPC82] | 3 ± 0.084 | 2.54 ± 0.071 | 3.54 ± 0.12 | 2.19 ± 0.079 |
| ATPFRQWFEAHYGQTLG [RPS8A] | 2.436 ± 0.022 | 2.787 ± 0.024 | 2.7 ± 0.021 | 2.573 ± 0.019 |
| PTQTKGNDAKPAKVEDV [YLR335W/NUP2] | 3.21 ± 0.057 | 3.25 ± 0.053 | 3.27 ± 0.039 | 3.1 ± 0.047 |
| ISSRTYGQRAVLKFAAH [RPS0B] | 1.78 ± 0.064 | 2.22 ± 0.095 | 2.26 ± 0.09 | 1.64 ± 0.069 |
| ESLYEPNLEPEDLFETI [PUP3] | 3.27 ± 0.12 | 3.09 ± 0.13 | 2.99 ± 0.11 | 3.01 ± 0.078 |
| TNFNEITNTDETITTKR [SWP82] | 3.13 ± 0.058 | 3.25 ± 0.061 | 3.08 ± 0.067 | 3.32 ± 0.045 |
| NCKKKKKRKKKNKSAID [RMP1] | 2.57 ± 0.1 | 2.67 ± 0.13 | 2.79 ± 0.089 | 3.37 ± 0.16 |
| TASKIIVIDVDYNKKQD [MED1] | 2.21 ± 0.083 | 2.58 ± 0.081 | 2.17 ± 0.055 | 2.65 ± 0.065 |
| DGIVVKNAVVRSKFGGD [ARP7] | 3.24 ± 0.26 | 1.92 ± 0.2 | 3.16 ± 0.25 | 3.56 ± 0.2 |
| VKQEDMPFNDQGIVPDI [RET1] | 2.86 ± 0.084 | 3.06 ± 0.059 | 2.91 ± 0.064 | 3.17 ± 0.043 |
| MSGLPPPPPGFEEDSDL [PRP8] | 3.19 ± 0.11 | 3.37 ± 0.083 | 3.13 ± 0.075 | 3.31 ± 0.078 |
| DLSANQRETMKERKLRE [SMC1] | 3.3 ± 0.13 | 3.06 ± 0.096 | 2.96 ± 0.091 | 3.42 ± 0.063 |
| LQDELKELQLEKESVEK [SMC3] | 3.66 ± 0.13 | 3.25 ± 0.21 | 2.7 ± 0.26 |  |
| FEAAVKMSDGFNGADIR [RPT4] | 3.66 ± 0.18 | 3.46 ± 0.091 | 3.34 ± 0.053 | 3.39 ± 0.09 |
| NEAGRKLSDIFLSKPSK [SNF2] | 2.94 ± 0.08 | 3.27 ± 0.087 | 3.21 ± 0.081 | 3.04 ± 0.093 |
| SIVTVVSSAKFSGKYLK [RPL22B] | 2.8 ± 0.1 | 2.86 ± 0.11 | 2.73 ± 0.085 | 2.73 ± 0.093 |

| Sequence | protein stability index (doa10∆) | protein stability index (pdr5∆) | protein stability index (san1∆) | protein stability index (ubr1∆) |
| --- | --- | --- | --- | --- |
| AVEQLAGCKIDNVDDIG [YDL088C/ASM4] | 2.86 ± 0.075 | 2.64 ± 0.071 | 2.56 ± 0.08 | 2.61 ± 0.047 |
| QGKSKLIIIAANTPVLR [RPL30] | 2.91 ± 0.093 | 3.08 ± 0.12 | 2.96 ± 0.065 | 2.99 ± 0.078 |
| LCAGANNPKIQTKDSVK [IRR1] | 3.29 ± 0.1 | 2.99 ± 0.1 | 3.13 ± 0.11 | 3.15 ± 0.057 |
| KIDKPIRTQVNTGGESV [RGR1] | 2.4 ± 0.06 | 2.4 ± 0.044 | 2.32 ± 0.052 | 2.25 ± 0.036 |
| IAPRPLDLLRPVVRAPT [RPL13A] | 2.55 ± 0.08 | 3.15 ± 0.089 | 2.1 ± 0.12 | 2.7 ± 0.051 |
| MVVNGPIPDARNAALRA [SCL1] | 2.38 ± 0.14 | 2.72 ± 0.11 | 2.36 ± 0.13 | 2.35 ± 0.091 |
| IYQTLIALNLDTTVNDC [SNF2] | 2.19 ± 0.035 | 2.53 ± 0.04 | 2.25 ± 0.054 | 2.35 ± 0.033 |
| SFGTANTNGTNASANST [YOR098C/NUP1] | 3.04 ± 0.11 | 3.02 ± 0.11 | 2.75 ± 0.15 | 2.85 ± 0.12 |
| SSFVRQELAKSIRSRRP [PRE1] | 2.08 ± 0.12 | 2.21 ± 0.074 | 1.78 ± 0.23 | 2.12 ± 0.065 |
| AEDGSRSTKDMIDAVFE [SNF6] | 3.18 ± 0.06 | 3.38 ± 0.048 | 3.31 ± 0.042 | 3.14 ± 0.046 |
| TVTIASSLNLEDTPAND [RPB8] | 2.83 ± 0.066 | 2.81 ± 0.054 | 2.65 ± 0.06 | 2.88 ± 0.067 |
| LDYVRTPAAATSPIDIR [SNF2] | 2.33 ± 0.056 | 2.45 ± 0.063 | 2.14 ± 0.077 | 2.36 ± 0.045 |
| VKMLRDNPGYKASKEIK [SIR3] | 3.08 ± 0.17 | 3.38 ± 0.19 |  | 3.15 ± 0.11 |
| GAAFKVISNLVPKLESS [YJL039C/NUP192] | 2.86 ± 0.16 | 2.59 ± 0.11 | 2.58 ± 0.24 | 2.18 ± 0.12 |
| SAKAELEKLVDHHPEGL [PRE10] | 2.84 ± 0.065 | 2.91 ± 0.055 | 2.55 ± 0.068 | 2.75 ± 0.048 |
| NKDASLALQRGATVFVN [DPB4] | 2.61 ± 0.099 | 2.29 ± 0.072 | 2.88 ± 0.067 | 2.32 ± 0.083 |
| LFPEQQTKEIKTERVED [RPL6B] | 3.55 ± 0.074 | 3.29 ± 0.079 | 3.46 ± 0.061 | 3.38 ± 0.063 |
| DKSTTQLRKEIQLLDEN [MED11] | 1.56 ± 0.093 | 1.54 ± 0.086 | 1.71 ± 0.17 | 1.55 ± 0.068 |
| TPMDESSYDLLFNESFI [SRP72] | 3.07 ± 0.1 | 2.98 ± 0.1 | 2.7 ± 0.1 | 3.12 ± 0.052 |
| RQKNVIHRAARPTRPDK [RPL15A] | 3.31 ± 0.17 | 3.69 ± 0.16 | 3.27 ± 0.066 | 3.24 ± 0.2 |
| GSLARAGKVKSQTPKVE [RPS30A] | 2.71 ± 0.06 | 2.7 ± 0.069 | 2.69 ± 0.058 | 2.57 ± 0.05 |
| PNSSANNNPLQQQSSQN [GAL11] | 2.99 ± 0.051 | 3.03 ± 0.045 | 3.02 ± 0.033 | 2.98 ± 0.034 |
| DANLLGAEVLIKGSKLS [COR1] | 2.94 ± 0.072 | 2.85 ± 0.079 | 2.63 ± 0.12 | 2.63 ± 0.042 |
| TSELGNDDFSEVFEFKT [BRR2] | 3.04 ± 0.14 | 3.08 ± 0.097 | 2.41 ± 0.083 | 2.7 ± 0.099 |
| SVEAYLVSLFEDTNLAA [HHT1] |  | 2.86 ± 0.26 | 2.59 ± 0.15 | 3.06 ± 0.14 |
| NIVKQNEGIDLDTYRER [SMC2] | 3.13 ± 0.13 | 3.51 ± 0.12 | 3.24 ± 0.079 | 3.41 ± 0.086 |
